This is an account of results in the supplement of paper PMC9170038.

The subject of the data set is K4 kissing-loop RNA reporter. Description: apparent KD of K4 kissing-loop reporter; higher = weaker reporter binding. The settings on record: Eterna round: R107. The procedure:
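RNA-MaP round R107: designed RNA switches with theophylline, tryptophan, arginine or FMN aptamers are transcribed on-chip within common flanks. They are titrated with a labelled K4 kissing-loop RNA reporter in RNA-MaP buffer (100 mM Tris pH 7.5, 80 mM KCl, 4 mM MgCl2), without ligand or with the indicated ligand. Median apparent KD per design.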

Setting [1] is: input ligand: theophylline 20 uM.
The mark [2] stands for this setting: input ligand: tryptophan 2.4 mM.
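Also: bound reporter read as fluorescence of individual clusters on recovered sequencing chips by microscopy, with normalized cluster intensities fitted with a binding model.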

With “CUUGGAAGGACGGCCGCCACUCGACAGUGAUGUUGUCCGAGUUGGUAACGCAGUGAUGUUGUGUCGAGGACCGGGUCCUAGGAAU [Exclusion Tryptophan B GF 26]”, the “apparent KD of K4 kissing-loop reporter” value worked out at 199 nM (input ligand: FMN 200 uM); 149 nM (input ligand: arginine 13.2 mM); 185 nM (input ligand: none); 174 nM under setting [1]; 147 nM under setting [2].

As for “GAAAGAAAGUAUGAUACCAGACACCCGAGUGAUGUUCGGAGCAGUGUGUUGUUCUUUUAAGUCCCUUGGCAGCAUAAAAGAAAAG [whbob_SS_Theo_B_sa85]”, the “apparent KD of K4 kissing-loop reporter” value was found to be 116 nM (input ligand: FMN 200 uM); 107 nM (input ligand: arginine 13.2 mM); 127 nM (input ligand: none); 114 nM under setting [1]; 87.1 nM under setting [2].

Consider “GAACGAGUGAUGUUCGUUAUUAUGCAUUCCGAGGAUAUGGGAUUAGCCAGAAGGCGGAAUCAAUCUUCGAGUGAUGUUCGAAGAU [Same State FMN A GF 11]”, for which the “apparent KD of K4 kissing-loop reporter” value is 129 nM (input ligand: FMN 200 uM); 138 nM (input ligand: arginine 13.2 mM); 142 nM (input ligand: none); 119 nM under setting [1]; 136 nM under setting [2].

Take “GACAUAUUCCAGGAUACCAGUGAUCCGCCGCAGCCGAAGACUAGUGAUGUUAGUUUCUGUCACCCUUGGCAGCCUCGAGUCUAAU [theeternabot_sameState_KL_Theo_B_15]”: the “apparent KD of K4 kissing-loop reporter” value is 420 nM (input ligand: FMN 200 uM); 487 nM (input ligand: arginine 13.2 mM); 498 nM (input ligand: none); 572 nM under setting [1]; 434 nM under setting [2].

With “GACCGGCCGACGAGUGAUGUUCGAUGGGAAGGAGCGCGAAGAAAUGCAGGUAGGUCGCCCUAAGUAAUUGAAACGGCCGGAUUAU [2.)]”, the “apparent KD of K4 kissing-loop reporter” value was 137 nM (input ligand: FMN 200 uM); 143 nM (input ligand: arginine 13.2 mM); 128 nM (input ligand: none); 212 nM under setting [1]; 102 nM under setting [2].

Consider “GAGAGCCCUGUAGGAUAUGAGUCUAGUGAUGUUAGGCGGUCCAUGCGCGUGGCGCGUUAUGCCCUUUUAGAAGGACAGGGCUCUC [#2 Exclusion - FMN B Attempt #20 (HarryS)]”, for which the “apparent KD of K4 kissing-loop reporter” value reads like this: (input ligand: FMN 200 uM) 105 nM; (input ligand: arginine 13.2 mM) 67.2 nM; (input ligand: none) 80.9 nM; under setting [1], 80.1 nM; under setting [2], 80 nM.

Consider “GAGAUAGAGGCGGCCGCCACUAGUGAUGUUAGUGAUGUUAGAUAGAGAAUAGAACAGAGAUAGGAUAGGACCGGGCCAGAUAGAG [Tryptophan B Exclusion; Euphoria Solution]”, for which the “apparent KD of K4 kissing-loop reporter” value (input ligand: FMN 200 uM) came out at 69.4 nM; the “apparent KD of K4 kissing-loop reporter” value (input ligand: arginine 13.2 mM) turned out to be 60.8 nM; the “apparent KD of K4 kissing-loop reporter” value (input ligand: none) came out at 57.4 nM; the “apparent KD of K4 kissing-loop reporter” value under setting [1] worked out at 52.1 nM; the “apparent KD of K4 kissing-loop reporter” value under setting [2] came to 68.6 nM.

On to “GAGCCAGAGGUUGCUGCGGGUUCCAGAGAUACCAGCCGUAUUGAAGGCCCUUGGCAGCUCGAGUGAUGUUCGAGCCGCCUCUGAC [Isquleorve]”, for which the “apparent KD of K4 kissing-loop reporter” value (input ligand: FMN 200 uM) is 119 nM; the “apparent KD of K4 kissing-loop reporter” value (input ligand: arginine 13.2 mM) was 104 nM; the “apparent KD of K4 kissing-loop reporter” value (input ligand: none) turned out to be 97.2 nM; the “apparent KD of K4 kissing-loop reporter” value under setting [1] was 108 nM; the “apparent KD of K4 kissing-loop reporter” value under setting [2] came to 110 nM.

For “GAUACCACGUUAGAUACCAGCUUCGUUGACUUGGGUAGUAGUCGAACUUCAGUGAUGUUGAGCCCUUGGCAGCUACAGAUGUGCG [theeternabot_exclusion_KL_Theo_B_38]”, the “apparent KD of K4 kissing-loop reporter” value reads like this: (input ligand: FMN 200 uM) 657 nM; (input ligand: arginine 13.2 mM) 311 nM; (input ligand: none) 654 nM; under setting [1], 588 nM; under setting [2], 624 nM.

Take “GAUAGUUAGAGAGAUACCAGCGAUACCUAGAUGGAAAGUGAUGUUCGCCAUCAAUUGCACCGCCCUUGGCAGCUCUCUCUUUGCU [theeternabot_exclusion_KL_Theo_B_37]”: the “apparent KD of K4 kissing-loop reporter” value stood at 995 nM (input ligand: FMN 200 uM); 763 nM (input ligand: arginine 13.2 mM); 1170 nM (input ligand: none); 974 nM under setting [1]; 959 nM under setting [2].

For the sequence “GAUAUAUAGACGGCCGCCACUUAUAAAUUUCAGUGAUGUUGAAAUGUUAAAUAACGAACACAAUAGAGGACCGGGUCAAAUAUCG [Same State Tryptophan B GF 2]”, the “apparent KD of K4 kissing-loop reporter” value runs as follows: (input ligand: FMN 200 uM) 162 nM; (input ligand: arginine 13.2 mM) 161 nM; (input ligand: none) 190 nM; under setting [1], 187 nM; under setting [2], 171 nM.
